Experimental data from US20110034670.

Tested on: 4-(sulfamoyl)benzoyladenosine-pYEEI conjugate (9)

Src tyrosine kinase
enhancement of catalytic activity and phosphorylation: enhanced the catalytic activity and phosphorylation by at least 40%
